From patent US20230220589A1
Where a chain is given by its changes, count along the chain named.

Tests used:
[1] = target: M44-modified V NTAA target peptides; experiment: encoding assay; P2 V;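 further: fraction of recording tags encoded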
[2] = target: M44-modified D NTAA target peptides; experiment: encoding assay; P2 A;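 further: fraction of recording tags encoded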
[3] = target: M44-modified E NTAA target peptides; experiment: encoding assay; P2 A;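 further: fraction of recording tags encoded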
[4] = target: M44-modified P NTAA target peptides; experiment: encoding assay; P2 A;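 further: fraction of recording tags encoded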
[5] = target: M44-modified S NTAA target peptides; experiment: encoding assay; P2 A
[6] = target: M44-modified T NTAA target peptides; experiment: encoding assay; P2 A;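 further: fraction of recording tags encoded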
[7] = target: M44-modified D NTAA target peptides; experiment: encoding assay; P2 G;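 further: fraction of recording tags encoded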
[8] = target: M44-modified P NTAA target peptides; experiment: encoding assay; P2 G;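 further: fraction of recording tags encoded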
[9] = target: M44-modified E NTAA target peptides; experiment: encoding assay; P2 V;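 further: fraction of recording tags encoded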
[10] = target: M44-modified G NTAA target peptides (M44-G-P2-peptide); experiment: encoding assay; P2 V;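 further: fraction of recording tags encoded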
[11] = target: M17-modified A NTAA target peptides; experiment: encoding assay; P2 A;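 further: fraction of recording tags encoded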
[12] = target: M17-modified D NTAA target peptides; experiment: encoding assay; P2 A;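 further: fraction of recording tags encoded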
[13] = target: M17-modified E NTAA target peptides; experiment: encoding assay; P2 A;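 further: fraction of recording tags encoded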
[14] = target: M17-modified F NTAA target peptides; experiment: encoding assay; P2 A;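 further: fraction of recording tags encoded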
[15] = target: M17-modified G NTAA target peptides; experiment: encoding assay; P2 A;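 further: fraction of recording tags encoded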
[16] = target: M17-modified H NTAA target peptides; experiment: encoding assay; P2 A;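 further: fraction of recording tags encoded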
[17] = target: M17-modified I NTAA target peptides; experiment: encoding assay; P2 A;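 further: fraction of recording tags encoded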
[18] = target: M17-modified L NTAA target peptides; experiment: encoding assay; P2 A;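 further: fraction of recording tags encoded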
[19] = target: M17-modified M NTAA target peptides; experiment: encoding assay; P2 A;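 further: fraction of recording tags encoded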
[20] = target: M17-modified N NTAA target peptides; experiment: encoding assay; P2 A;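 further: fraction of recording tags encoded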
[21] = target: M17-modified P NTAA target peptides; experiment: encoding assay; P2 A;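 further: fraction of recording tags encoded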
[22] = target: M17-modified Q NTAA target peptides; experiment: encoding assay; P2 A;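 further: fraction of recording tags encoded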
[23] = target: M17-modified T NTAA target peptides; experiment: encoding assay; P2 A;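 further: fraction of recording tags encoded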
[24] = target: M17-modified V NTAA target peptides; experiment: encoding assay; P2 A;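 further: fraction of recording tags encoded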
[25] = target: M17-modified W NTAA target peptides; experiment: encoding assay; P2 A;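 further: fraction of recording tags encoded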
[26] = target: M17-modified Y NTAA target peptides (M17-Y-P2-peptide); experiment: encoding assay; P2 A;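 further: fraction of recording tags encoded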
[27] = target: M17-modified A NTAA target peptides; experiment: encoding assay; P2 G;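 further: fraction of recording tags encoded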
[28] = target: M17-modified E NTAA target peptides; experiment: encoding assay; P2 G;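 further: fraction of recording tags encoded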
[29] = target: M17-modified F NTAA target peptides; experiment: encoding assay; P2 G;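 further: fraction of recording tags encoded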
[30] = target: M17-modified I NTAA target peptides; experiment: encoding assay; P2 G;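 further: fraction of recording tags encoded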
[31] = target: M17-modified M NTAA target peptides; experiment: encoding assay; P2 G;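 further: fraction of recording tags encoded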
[32] = target: M17-modified N NTAA target peptides; experiment: encoding assay; P2 G;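 further: fraction of recording tags encoded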
[33] = target: M17-modified Q NTAA target peptides; experiment: encoding assay; P2 G;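 further: fraction of recording tags encoded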
[34] = target: M17-modified V NTAA target peptides; experiment: encoding assay; P2 G;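 further: fraction of recording tags encoded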
[35] = target: M17-modified Y NTAA target peptides (M17-Y-P2-peptide); experiment: encoding assay; P2 G;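 further: fraction of recording tags encoded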
[36] = target: M17-modified M NTAA target peptides; experiment: encoding assay; P2 N;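 further: fraction of recording tags encoded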
[37] = target: M17-modified S NTAA target peptides; experiment: encoding assay; P2 N;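 further: fraction of recording tags encoded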
[38] = target: M17-modified A NTAA target peptides; experiment: encoding assay; P2 V;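 further: fraction of recording tags encoded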
[39] = target: M17-modified D NTAA target peptides; experiment: encoding assay; P2 V;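 further: fraction of recording tags encoded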
[40] = target: M17-modified E NTAA target peptides; experiment: encoding assay; P2 V;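 further: fraction of recording tags encoded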
[41] = target: M17-modified F NTAA target peptides; experiment: encoding assay; P2 V;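 further: fraction of recording tags encoded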
[42] = target: M17-modified G NTAA target peptides; experiment: encoding assay; P2 V;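 further: fraction of recording tags encoded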
[43] = target: M17-modified H NTAA target peptides; experiment: encoding assay; P2 V;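 further: fraction of recording tags encoded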
[44] = target: M17-modified I NTAA target peptides; experiment: encoding assay; P2 V;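 further: fraction of recording tags encoded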
[45] = target: M17-modified L NTAA target peptides; experiment: encoding assay; P2 V;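 further: fraction of recording tags encoded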
[46] = target: M17-modified M NTAA target peptides; experiment: encoding assay; P2 V;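 further: fraction of recording tags encoded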
[47] = target: M17-modified N NTAA target peptides; experiment: encoding assay; P2 V;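 further: fraction of recording tags encoded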
[48] = target: M17-modified P NTAA target peptides; experiment: encoding assay; P2 V;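 further: fraction of recording tags encoded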
[49] = target: M17-modified Q NTAA target peptides; experiment: encoding assay; P2 V;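 further: fraction of recording tags encoded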
[50] = target: M17-modified S NTAA target peptides; experiment: encoding assay; P2 V;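 further: fraction of recording tags encoded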
[51] = target: M17-modified T NTAA target peptides; experiment: encoding assay; P2 V;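 further: fraction of recording tags encoded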
[52] = target: M17-modified V NTAA target peptides; experiment: encoding assay; P2 V;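 further: fraction of recording tags encoded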
[53] = target: M17-modified W NTAA target peptides; experiment: encoding assay; P2 V;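 further: fraction of recording tags encoded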
[54] = target: M17-modified Y NTAA target peptides (M17-Y-P2-peptide); experiment: encoding assay; P2 V;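 further: fraction of recording tags encoded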

B1: engineered M44-L binder (SEQ ID NO: 21) (designed binder, not shown: small tags and cut ends; large carriers)
chain: QVSVQPNFQQDKFLGRWFYAGHASNSSWYREKVAALSMAKLVVAPATDGGLNATETFLRKNQCETITSLLQPAGSLGSYSSRSPHGGSTWSTSVVETDYDQYALLYLQGSKGPGEDFRGAILASRTQTPRAELKEKFTAFSKAQGFTEDTIVFLPQTDKCMTEQ
With B1 the encoding yield [1] was 0.01.

B2: engineered M44-A binder (SEQ ID NO: 42) (designed binder, not shown: small tags and cut ends; large carriers)
chain: QVSVQPNFQQDKFLGRWFVAGLASNSSWDREKVAALSGAKMVVAPATDGGLNVTRTMLRKNQCETYTGLLQPAGSLGSYSWRSPHPGSTGSESVVETDYDQYALVYGQGSKGPGEDLRAAALWSRTQTPRAELKEKFTAFSKAQGFTEDTIVFLPQTDKCMTEQ
With B2 the encoding yield [2] was 0.02, the encoding yield [3] was 0.02 and the encoding yield [4] was 0.01. For the same binder, the encoding yield [5] was 0.01, the encoding yield [6] was 0.01 and the encoding yield [7] was 0.01. It also gave an encoding yield [8] of 0.02, an encoding yield [9] of 0.03 and an encoding yield [10] of 0.01. For the same binder, the encoding yield [1] was 0.01.

B3: engineered M17-Y binder (SEQ ID NO: 61) (designed binder, not shown: small tags and cut ends; large carriers)
chain: TVPDRSEIAGKWYVVALASNTEFYLREKDWVKSAMARISFLGEDELKVSSAVPSPNGCYKVERTWKKTSDDGEVYNSRAAKLKVEVLDTDYKSYAVIYATRVKDGRTDHQMILYSRSPEVSPAATAIFRKLAGERNYTDEMVAMLPRQEECTVDEV
Binder B3 has an encoding yield [11] of 0.02, an encoding yield [12] of 0.01 and an encoding yield [13] of 0.01. The encoding yield [14] was 0.04, the encoding yield [15] was 0.02 and the encoding yield [16] was 0.02. The encoding yield [17] was 0.02, the encoding yield [18] was 0.02 and the encoding yield [19] was 0.02. For the same binder, the encoding yield [20] was 0.02, the encoding yield [21] was 0.01 and the encoding yield [22] was 0.02. The encoding yield [23] was 0.01, the encoding yield [24] was 0.01 and the encoding yield [25] was 0.04. For the same binder, the encoding yield [26] was 0.12, the encoding yield [27] was 0.01 and the encoding yield [28] was 0.02. The encoding yield [29] was 0.06, the encoding yield [30] was 0.03 and the encoding yield [31] was 0.01. It also gave an encoding yield [32] of 0.01, an encoding yield [33] of 0.02 and an encoding yield [34] of 0.02. For the same binder, the encoding yield [35] was 0.11, the encoding yield [36] was 0.01 and the encoding yield [37] was 0.02. For the same binder, the encoding yield [38] was 0.02, the encoding yield [39] was 0.03 and the encoding yield [40] was 0.01. For the same binder, the encoding yield [41] was 0.13, the encoding yield [42] was 0.01 and the encoding yield [43] was 0.04. The encoding yield [44] was 0.05, the encoding yield [45] was 0.02 and the encoding yield [46] was 0.02. It also gave an encoding yield [47] of 0.02, an encoding yield [48] of 0.02 and an encoding yield [49] of 0.02. It also gave an encoding yield [50] of 0.02, an encoding yield [51] of 0.03 and an encoding yield [52] of 0.01. The encoding yield [53] was 0.04 and the encoding yield [54] was 0.22.

B4: upgraded binder after additional maturation round (SEQ ID NO: 62) (designed binder, not shown: small tags and cut ends; large carriers)
chain: B3 chain with E27G, W30R, A36V, L41Q, G105R, E119D
B4 was tested, and the encoding yield [11] was 0.02, the encoding yield [12] was 0.02 and the encoding yield [13] was 0.02. It also gave an encoding yield [14] of 0.09, an encoding yield [15] of 0.03 and an encoding yield [16] of 0.02. The encoding yield [17] was 0.03, the encoding yield [18] was 0.04 and the encoding yield [19] was 0.03. The encoding yield [20] was 0.03, the encoding yield [21] was 0.01 and the encoding yield [22] was 0.02. For the same binder, the encoding yield [23] was 0.01, the encoding yield [24] was 0.02 and the encoding yield [25] was 0.08. The encoding yield [26] was 0.24, the encoding yield [27] was 0.02 and the encoding yield [28] was 0.02. The encoding yield [29] was 0.11, the encoding yield [30] was 0.05 and the encoding yield [31] was 0.02. For the same binder, the encoding yield [32] was 0.01, the encoding yield [33] was 0.02 and the encoding yield [34] was 0.03. It also gave an encoding yield [35] of 0.18, an encoding yield [36] of 0.02 and an encoding yield [37] of 0.02. It also gave an encoding yield [38] of 0.03, an encoding yield [39] of 0.03 and an encoding yield [40] of 0.02. For the same binder, the encoding yield [41] was 0.17, the encoding yield [42] was 0.02 and the encoding yield [43] was 0.04. The encoding yield [44] was 0.07, the encoding yield [45] was 0.03 and the encoding yield [46] was 0.03. It also gave an encoding yield [47] of 0.03, an encoding yield [48] of 0.03 and an encoding yield [49] of 0.02. The encoding yield [50] was 0.03, the encoding yield [51] was 0.04 and the encoding yield [52] was 0.01. It also gave an encoding yield [53] of 0.08 and an encoding yield [54] of 0.32.

B5: engineered M44-L binder (SEQ ID NO: 31) (designed binder, not shown: small tags and cut ends; large carriers)
chain: QDSTQNLIPAPPLISVPLQPGFWTERFQGRWFLVGFAGNAVQKERQSRLTMQSLILELQEDNSYNITAINVRGQGCRYIISTLVPSSRPGQFTLGNIHSYPQIQSLDVQVADTDYDQFAMVFLQGTSENKQYFEVALAGRTKGLSDELKERFVSFAKSLGLKDNNIVFSVPTDQCIDN
With B5 the encoding yield [2] was 0.02, the encoding yield [3] was 0.02 and the encoding yield [4] was 0.01. The encoding yield [5] was 0.01, the encoding yield [6] was 0.01 and the encoding yield [7] was 0.01. It also gave an encoding yield [8] of 0.02, an encoding yield [9] of 0.01 and an encoding yield [10] of 0.01.
